Experimental data published in paper PMC7458460.

Molecular target: CN391 (CNA_(1–391)/CNB_(1–170)) (UniProt Q08209)
Assay: ITC

Chain of CN391 (CNA_(1–391)/CNB_(1–170)) (Q08209 1-391, chain 1 of 2): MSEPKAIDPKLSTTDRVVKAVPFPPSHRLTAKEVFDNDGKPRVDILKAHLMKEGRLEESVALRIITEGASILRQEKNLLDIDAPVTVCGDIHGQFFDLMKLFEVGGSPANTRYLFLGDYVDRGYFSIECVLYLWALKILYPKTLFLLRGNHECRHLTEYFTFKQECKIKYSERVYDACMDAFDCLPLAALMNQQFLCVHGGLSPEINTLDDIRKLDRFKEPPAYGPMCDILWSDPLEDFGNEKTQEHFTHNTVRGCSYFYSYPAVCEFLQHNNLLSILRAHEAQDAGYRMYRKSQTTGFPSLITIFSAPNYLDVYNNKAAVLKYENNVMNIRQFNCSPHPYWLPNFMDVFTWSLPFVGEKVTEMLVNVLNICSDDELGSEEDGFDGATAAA
Chain of CN391 (CNA_(1–391)/CNB_(1–170)) (P63098 whole entry, chain 2 of 2, further chain): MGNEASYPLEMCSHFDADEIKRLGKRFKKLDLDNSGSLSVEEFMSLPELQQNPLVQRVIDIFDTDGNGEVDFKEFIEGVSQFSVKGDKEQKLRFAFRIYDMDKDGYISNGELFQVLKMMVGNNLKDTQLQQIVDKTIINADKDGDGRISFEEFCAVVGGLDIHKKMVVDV
Chain of RCAN1_(core) WT (residues 128 to 164) (P53805 183-219): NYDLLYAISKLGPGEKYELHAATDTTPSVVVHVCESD

Question: Which results are given for “RCAN1_(core) WT (residues 128 to 164) (from UniProt P53805-2 128-164) (domain or fragment)”?
Answer: Kd: 161 nM; dH: -18.8 kcal/mol
